This is an account of results in patent US20190134153A1, “IMMUNOMODULATORY EFFECT OF INHALED KINASE INHIBITOR PEPTIDES IN LUNG” (MOERAE MATRIX, INC., priority 2017, published 2019).

Targets include CaMKIδ(h) (Homo sapiens, UniProt Q8IU85); Mnk2(h) (Homo sapiens, UniProt Q9HBH9); PASK(h) (Homo sapiens, UniProt Q96RG2); ACK1(h) (Homo sapiens, UniProt Q07912); MRCKβ(h) (Homo sapiens, UniProt Q9Y5S2); PKCδ(h) (Homo sapiens, UniProt Q05655); Rsk3(h) (Homo sapiens, UniProt Q15349); MAPK2(h) (Homo sapiens, UniProt P28482); FGFR1(h) (Homo sapiens, UniProt P11362); FGFR1(V561M)(h) (Homo sapiens, UniProt P11362, V561M).

Assay in all cases: Kinase Profiling Assay
What all share (assay type): biochemical
Conditions in all cases: 100 μM

The next experiment deals with T1, Txk(h) (Homo sapiens, UniProt P42681).
T1 sequence (P42681 1-527): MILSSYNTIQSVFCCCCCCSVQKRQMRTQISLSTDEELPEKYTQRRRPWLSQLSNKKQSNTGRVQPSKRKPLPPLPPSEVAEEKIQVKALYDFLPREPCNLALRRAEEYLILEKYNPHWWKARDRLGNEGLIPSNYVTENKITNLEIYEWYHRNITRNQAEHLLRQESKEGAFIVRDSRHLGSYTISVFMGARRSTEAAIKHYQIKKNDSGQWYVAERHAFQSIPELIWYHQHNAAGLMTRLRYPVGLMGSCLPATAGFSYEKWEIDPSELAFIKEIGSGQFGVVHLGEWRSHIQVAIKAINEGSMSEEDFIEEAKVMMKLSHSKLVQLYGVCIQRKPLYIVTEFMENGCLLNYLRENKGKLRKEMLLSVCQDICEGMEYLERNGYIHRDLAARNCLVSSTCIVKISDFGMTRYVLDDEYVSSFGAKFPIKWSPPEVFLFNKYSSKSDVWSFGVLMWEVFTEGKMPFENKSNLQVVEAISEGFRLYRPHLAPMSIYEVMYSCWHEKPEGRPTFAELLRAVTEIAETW

The target of another experiment is T2, TSSK1(h) (Homo sapiens, UniProt Q9BXA7).
T2 sequence (Q9BXA7 1-367): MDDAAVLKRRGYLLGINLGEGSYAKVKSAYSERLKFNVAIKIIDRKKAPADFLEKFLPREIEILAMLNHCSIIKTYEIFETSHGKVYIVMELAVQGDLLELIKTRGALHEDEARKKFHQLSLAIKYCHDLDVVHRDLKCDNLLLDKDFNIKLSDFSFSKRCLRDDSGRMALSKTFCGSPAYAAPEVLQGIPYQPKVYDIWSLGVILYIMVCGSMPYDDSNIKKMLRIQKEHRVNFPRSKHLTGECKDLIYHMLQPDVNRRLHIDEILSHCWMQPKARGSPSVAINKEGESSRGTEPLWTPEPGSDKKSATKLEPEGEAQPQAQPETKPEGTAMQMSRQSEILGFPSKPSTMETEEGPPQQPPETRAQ

The target of a further experiment is T3, PhKγ2(h) (Homo sapiens, UniProt P15735).
T3 sequence (P15735 1-406): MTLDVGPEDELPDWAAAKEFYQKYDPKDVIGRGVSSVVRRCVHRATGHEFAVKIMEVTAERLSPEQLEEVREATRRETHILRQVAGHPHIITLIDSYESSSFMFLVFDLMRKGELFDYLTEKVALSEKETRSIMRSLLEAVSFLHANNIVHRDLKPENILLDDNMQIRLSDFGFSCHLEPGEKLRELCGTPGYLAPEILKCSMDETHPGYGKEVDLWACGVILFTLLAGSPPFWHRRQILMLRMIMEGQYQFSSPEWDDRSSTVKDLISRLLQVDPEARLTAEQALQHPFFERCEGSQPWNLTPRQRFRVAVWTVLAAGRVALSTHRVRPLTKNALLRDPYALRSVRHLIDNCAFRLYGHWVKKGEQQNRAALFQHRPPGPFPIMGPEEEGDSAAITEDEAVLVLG

Another experiment addresses T4, BrSK2(h) (Homo sapiens, UniProt Q8IWQ3).
T4 sequence (Q8IWQ3 1-736): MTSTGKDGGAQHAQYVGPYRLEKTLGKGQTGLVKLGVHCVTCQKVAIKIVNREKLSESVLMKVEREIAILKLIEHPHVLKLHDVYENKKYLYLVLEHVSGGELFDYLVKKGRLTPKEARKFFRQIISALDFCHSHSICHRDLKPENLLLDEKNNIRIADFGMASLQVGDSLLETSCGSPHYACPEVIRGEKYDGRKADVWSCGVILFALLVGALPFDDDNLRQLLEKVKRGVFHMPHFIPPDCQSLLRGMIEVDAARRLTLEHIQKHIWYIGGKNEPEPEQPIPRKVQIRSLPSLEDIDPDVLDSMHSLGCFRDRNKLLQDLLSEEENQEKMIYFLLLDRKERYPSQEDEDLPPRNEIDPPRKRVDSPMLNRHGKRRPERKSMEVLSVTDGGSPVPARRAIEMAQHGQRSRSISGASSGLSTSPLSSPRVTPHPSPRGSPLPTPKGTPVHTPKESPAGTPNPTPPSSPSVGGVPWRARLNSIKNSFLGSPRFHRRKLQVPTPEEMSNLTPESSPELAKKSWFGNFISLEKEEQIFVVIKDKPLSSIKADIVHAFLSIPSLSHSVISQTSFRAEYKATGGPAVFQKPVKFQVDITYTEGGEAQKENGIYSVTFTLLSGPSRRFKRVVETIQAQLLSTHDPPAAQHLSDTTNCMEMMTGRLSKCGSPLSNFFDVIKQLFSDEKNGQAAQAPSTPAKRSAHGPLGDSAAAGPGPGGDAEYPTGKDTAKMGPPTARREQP

Sequence of Rsk3(h) (Q15349 whole entry): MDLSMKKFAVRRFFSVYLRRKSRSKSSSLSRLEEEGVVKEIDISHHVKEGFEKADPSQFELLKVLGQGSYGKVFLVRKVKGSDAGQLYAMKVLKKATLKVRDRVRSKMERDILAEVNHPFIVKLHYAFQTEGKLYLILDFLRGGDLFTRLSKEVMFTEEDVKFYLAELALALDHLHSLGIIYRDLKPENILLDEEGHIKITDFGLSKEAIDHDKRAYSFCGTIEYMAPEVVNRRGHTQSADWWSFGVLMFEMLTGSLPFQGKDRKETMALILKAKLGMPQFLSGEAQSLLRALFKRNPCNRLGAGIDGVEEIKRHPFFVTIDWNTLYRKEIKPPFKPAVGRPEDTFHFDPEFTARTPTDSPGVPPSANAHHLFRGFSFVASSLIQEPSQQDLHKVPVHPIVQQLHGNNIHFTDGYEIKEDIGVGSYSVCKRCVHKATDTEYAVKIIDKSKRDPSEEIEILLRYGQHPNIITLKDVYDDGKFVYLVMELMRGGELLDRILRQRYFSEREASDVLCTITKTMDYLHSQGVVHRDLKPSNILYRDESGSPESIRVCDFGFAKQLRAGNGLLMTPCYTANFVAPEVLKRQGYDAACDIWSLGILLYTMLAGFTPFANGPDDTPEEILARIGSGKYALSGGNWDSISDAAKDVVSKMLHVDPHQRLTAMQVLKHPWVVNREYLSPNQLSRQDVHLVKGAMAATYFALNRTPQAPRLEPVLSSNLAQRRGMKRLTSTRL
Sequence of Mnk2(h) (Q9HBH9 whole entry): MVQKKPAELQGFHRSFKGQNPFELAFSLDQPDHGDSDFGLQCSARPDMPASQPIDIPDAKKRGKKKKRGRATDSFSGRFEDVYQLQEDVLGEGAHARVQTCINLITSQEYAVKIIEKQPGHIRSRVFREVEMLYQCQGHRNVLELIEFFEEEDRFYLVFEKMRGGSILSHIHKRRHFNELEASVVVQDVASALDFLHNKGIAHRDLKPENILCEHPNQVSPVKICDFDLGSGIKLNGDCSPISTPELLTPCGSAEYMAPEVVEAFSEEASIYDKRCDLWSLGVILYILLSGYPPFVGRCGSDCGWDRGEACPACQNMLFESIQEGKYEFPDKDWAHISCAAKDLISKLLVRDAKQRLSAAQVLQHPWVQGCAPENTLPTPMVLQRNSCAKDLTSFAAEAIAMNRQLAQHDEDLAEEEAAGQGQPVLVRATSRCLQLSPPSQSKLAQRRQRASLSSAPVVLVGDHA
Sequence of PKCδ(h) (Q05655 whole entry): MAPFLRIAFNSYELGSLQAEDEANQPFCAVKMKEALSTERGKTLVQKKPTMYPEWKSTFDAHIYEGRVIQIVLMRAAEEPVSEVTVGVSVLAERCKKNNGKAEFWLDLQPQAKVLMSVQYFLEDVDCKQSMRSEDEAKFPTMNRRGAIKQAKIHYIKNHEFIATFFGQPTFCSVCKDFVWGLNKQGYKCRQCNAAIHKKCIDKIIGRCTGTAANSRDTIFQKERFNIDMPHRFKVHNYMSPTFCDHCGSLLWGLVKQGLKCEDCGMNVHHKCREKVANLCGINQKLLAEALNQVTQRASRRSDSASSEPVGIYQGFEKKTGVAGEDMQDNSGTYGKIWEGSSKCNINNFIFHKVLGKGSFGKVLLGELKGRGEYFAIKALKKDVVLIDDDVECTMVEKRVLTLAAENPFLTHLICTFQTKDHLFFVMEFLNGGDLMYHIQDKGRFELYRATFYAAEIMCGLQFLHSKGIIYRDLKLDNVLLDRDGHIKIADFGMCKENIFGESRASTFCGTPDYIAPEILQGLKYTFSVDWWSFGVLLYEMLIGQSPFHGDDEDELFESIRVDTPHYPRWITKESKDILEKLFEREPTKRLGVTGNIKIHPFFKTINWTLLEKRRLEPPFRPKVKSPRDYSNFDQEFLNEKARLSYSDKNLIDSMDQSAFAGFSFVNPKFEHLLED
Sequence of MAPK2(h) (P28482 whole entry): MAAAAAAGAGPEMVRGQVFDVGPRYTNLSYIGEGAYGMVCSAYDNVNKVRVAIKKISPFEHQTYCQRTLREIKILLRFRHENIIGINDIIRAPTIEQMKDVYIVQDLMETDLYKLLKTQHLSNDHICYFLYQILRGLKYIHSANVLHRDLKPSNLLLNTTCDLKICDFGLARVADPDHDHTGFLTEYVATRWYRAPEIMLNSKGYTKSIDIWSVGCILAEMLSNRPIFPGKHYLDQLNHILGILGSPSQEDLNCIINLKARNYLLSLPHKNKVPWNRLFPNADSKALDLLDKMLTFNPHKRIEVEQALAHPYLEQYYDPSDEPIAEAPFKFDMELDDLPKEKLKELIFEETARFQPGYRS
Sequence of MRCKβ(h) (Q9Y5S2 whole entry): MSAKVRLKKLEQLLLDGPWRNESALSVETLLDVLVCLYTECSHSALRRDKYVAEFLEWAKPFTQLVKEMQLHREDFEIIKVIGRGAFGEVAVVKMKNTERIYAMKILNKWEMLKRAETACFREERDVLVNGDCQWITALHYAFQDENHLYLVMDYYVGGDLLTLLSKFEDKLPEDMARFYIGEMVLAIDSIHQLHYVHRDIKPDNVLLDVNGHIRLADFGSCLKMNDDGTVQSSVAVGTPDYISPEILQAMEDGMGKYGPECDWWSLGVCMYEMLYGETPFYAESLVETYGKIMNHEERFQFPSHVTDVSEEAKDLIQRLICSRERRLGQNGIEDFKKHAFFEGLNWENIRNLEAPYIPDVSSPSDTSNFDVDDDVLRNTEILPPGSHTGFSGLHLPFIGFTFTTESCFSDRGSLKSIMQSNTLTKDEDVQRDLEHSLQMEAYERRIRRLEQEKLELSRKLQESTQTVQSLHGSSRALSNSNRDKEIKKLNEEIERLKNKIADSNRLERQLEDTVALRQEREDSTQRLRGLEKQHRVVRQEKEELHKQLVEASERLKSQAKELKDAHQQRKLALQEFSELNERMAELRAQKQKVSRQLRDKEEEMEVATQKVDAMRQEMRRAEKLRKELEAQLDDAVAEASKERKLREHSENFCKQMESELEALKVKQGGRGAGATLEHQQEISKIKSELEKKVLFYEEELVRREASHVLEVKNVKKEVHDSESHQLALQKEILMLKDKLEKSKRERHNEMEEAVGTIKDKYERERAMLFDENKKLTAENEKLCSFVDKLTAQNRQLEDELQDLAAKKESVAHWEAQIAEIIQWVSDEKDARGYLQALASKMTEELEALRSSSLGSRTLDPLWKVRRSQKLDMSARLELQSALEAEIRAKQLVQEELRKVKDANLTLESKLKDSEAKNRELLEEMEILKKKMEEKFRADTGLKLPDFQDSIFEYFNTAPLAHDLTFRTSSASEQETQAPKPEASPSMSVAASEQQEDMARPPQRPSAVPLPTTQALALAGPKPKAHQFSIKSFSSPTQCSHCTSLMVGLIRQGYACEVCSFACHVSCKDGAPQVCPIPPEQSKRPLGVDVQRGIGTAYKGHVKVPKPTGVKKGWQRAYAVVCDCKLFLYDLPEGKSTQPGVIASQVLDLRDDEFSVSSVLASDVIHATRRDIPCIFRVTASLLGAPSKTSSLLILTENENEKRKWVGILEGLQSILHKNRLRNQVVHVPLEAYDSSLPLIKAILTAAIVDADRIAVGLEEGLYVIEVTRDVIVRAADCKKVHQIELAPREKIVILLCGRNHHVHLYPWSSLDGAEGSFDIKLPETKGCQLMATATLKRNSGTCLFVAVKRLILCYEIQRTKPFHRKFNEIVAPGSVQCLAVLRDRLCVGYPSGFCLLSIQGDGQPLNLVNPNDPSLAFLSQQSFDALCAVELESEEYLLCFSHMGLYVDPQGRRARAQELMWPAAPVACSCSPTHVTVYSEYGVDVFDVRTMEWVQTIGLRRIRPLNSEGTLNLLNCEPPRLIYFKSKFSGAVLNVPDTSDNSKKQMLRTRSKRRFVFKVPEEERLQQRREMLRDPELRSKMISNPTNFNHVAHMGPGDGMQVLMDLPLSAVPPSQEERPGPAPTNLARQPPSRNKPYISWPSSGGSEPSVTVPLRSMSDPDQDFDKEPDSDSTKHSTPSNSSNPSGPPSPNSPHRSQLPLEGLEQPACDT
Sequence of FGFR1(h) (P11362 22-822): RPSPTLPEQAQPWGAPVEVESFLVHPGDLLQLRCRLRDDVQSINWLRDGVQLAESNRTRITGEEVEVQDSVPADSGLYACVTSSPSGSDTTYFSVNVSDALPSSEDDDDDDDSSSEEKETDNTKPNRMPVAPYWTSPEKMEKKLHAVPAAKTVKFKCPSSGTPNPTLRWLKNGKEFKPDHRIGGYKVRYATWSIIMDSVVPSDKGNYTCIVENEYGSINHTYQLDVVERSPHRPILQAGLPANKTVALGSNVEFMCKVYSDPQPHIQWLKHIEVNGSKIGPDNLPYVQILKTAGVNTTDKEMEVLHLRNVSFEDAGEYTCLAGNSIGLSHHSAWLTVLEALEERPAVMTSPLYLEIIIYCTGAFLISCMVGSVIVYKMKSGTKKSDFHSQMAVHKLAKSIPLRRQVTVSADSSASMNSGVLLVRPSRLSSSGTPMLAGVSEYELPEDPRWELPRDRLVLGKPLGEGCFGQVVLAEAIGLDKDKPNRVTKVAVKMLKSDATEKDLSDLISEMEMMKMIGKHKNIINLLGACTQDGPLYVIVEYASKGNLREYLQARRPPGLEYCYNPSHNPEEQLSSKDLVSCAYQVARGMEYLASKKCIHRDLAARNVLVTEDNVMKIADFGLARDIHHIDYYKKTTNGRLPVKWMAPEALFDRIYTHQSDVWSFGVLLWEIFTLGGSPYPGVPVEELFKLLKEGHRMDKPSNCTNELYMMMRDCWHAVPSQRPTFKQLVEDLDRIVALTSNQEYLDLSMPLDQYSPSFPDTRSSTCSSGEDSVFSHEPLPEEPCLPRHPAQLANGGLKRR
Sequence of FGFR1(V561M)(h) (P11362 22-822 V561M): as the sequence (P11362 22-822) above, with V540M counted along it

HRRIKAWLKKIKALARQLGVAA [MMI-0500]: the “% activity” value with CaMKIδ(h) turned out to be 0%; with Txk(h), 10%; with Mnk2(h), 6%; with PASK(h) it was 9%; with ACK1(h), 64%; with TSSK1(h), 46%. Besides, the “% activity” value with MRCKβ(h) is −10%; with PKCδ(h) it was 61%; in the experiment with Rsk3(h), 23%; in the experiment with PhKγ2(h), 16%; with BrSK2(h), 84%; in the experiment with MAPK2(h), 60%. Also, the “% activity” value with FGFR1(h) is recorded as 18%.

With YARAAARQARAKALNRQLGVA [MMI-0200], the “% activity” value was determined as 47% with CaMKIδ(h); 98% with Txk(h); 60% with PASK(h); 72% with FGFR1(V561M)(h); 97% in the experiment with ACK1(h); 98% with TSSK1(h). Further, the “% activity” value with PKCδ(h) was found to be 101%; with PhKγ2(h), 86%; in the experiment with FGFR1(h) it was 97%.

Turning to KAFAKLAARLYRKALARQLGVAA [MMI-0400], the “% activity” value with CaMKIδ(h) is reported as 17%; with Txk(h), 37%; with Mnk2(h), 86%; with PASK(h), 28%; with FGFR1(V561M)(h) it was 74%; in the experiment with ACK1(h) it was 95%. Further, the “% activity” value worked out at 79% in the experiment with TSSK1(h); 71% with MRCKβ(h); 90% in the experiment with PKCδ(h); 71% with Rsk3(h); 38% in the experiment with PhKγ2(h); 86% in the experiment with BrSK2(h). Also, the “% activity” value with MAPK2(h) came to 93%; in the experiment with FGFR1(h), 59%.

For the sequence FAKLAARLYRKALARQLGVAA [MMI-0300], the “% activity” value with CaMKIδ(h) came out at 10%; with Txk(h) it was 48%; in the experiment with Mnk2(h) it was 89%; with PASK(h) it was 29%; with FGFR1(V561M)(h) it was 74%; with TSSK1(h), 79%. Also, the “% activity” value was found to be 83% with MRCKβ(h); 101% with PKCδ(h); 76% with Rsk3(h); 46% in the experiment with PhKγ2(h); 83% in the experiment with BrSK2(h); 98% with MAPK2(h). The “% activity” value in the experiment with FGFR1(h) is on record as 55%.
